Results on six molecules are retold here after patent US12303551B2, “Cellular immunotherapy compositions and uses thereof” (CERO THERPEUTICS HOLDINGS, INC., priority 2018, dated 2025).

To fix the notation:
B1: CER5: Chimeric engulfment receptor: Tim4 binding, Tim4 transmembrane, TLR4 signaling; SEQ ID NO: 94 (protein)
chain: MSKGLLLLWLVTELWWLYLTPAASEDTIIGFLGQPVTLPCHYLSWSQSRNSMCWGKGSCPNSKCNAELLRTDGTRIISRKSTKYTLLGKVQFGEVSLTISNTNRGDSGVYCCRIEVPGWFNDVKKNVRLELRRATTTKKPTTTTRPTTTPYVTTTTPELLPTTVMTTSVLPTTTPPQTLATTAFSTAVTTCPSTTPGSFSQETTKGSAFTTESETLPASNHSQRSMMTISTDIAVLRPTGSNPGILPSTSQLTTQKTTLTTSESLQKTTKSHQINSRQTILIIACCVGFVLMVLLFLAFLKFYFHLMLLAGCIKYGRGENIYDAFVIYSSQDEDWVRNELVKNLEEGVPPFQLCLHYRDFIPGVAIAANIIHEGFHKSRKVIVVVSQHFIQSRWCIFEYEIAQTWQFLSSRAGIIFIVLQKVEKTLLRQQVELYRLLSRNTYLEWEDSVLGRHIFWRRLRKALLDGKSWNPEGTVGTGCNWQEATSI
modifications: CER5, amino acids 1-22 are signal peptide
B2: CER26: Chimeric engulfment receptor: Tim4 binding, Tim4 transmembrane, TLR1 signaling; SEQ ID NO: 118 (protein)
chain: MSKGLLLLWLVTELWWLYLTPAASEDTIIGFLGQPVTLPCHYLSWSQSRNSMCWGKGSCPNSKCNAELLRTDGTRIISRKSTKYTLLGKVQFGEVSLTISNTNRGDSGVYCCRIEVPGWFNDVKKNVRLELRRATTTKKPTTTTRPTTTPYVTTTTPELLPTTVMTTSVLPTTTPPQTLATTAFSTAVTTCPSTTPGSFSQETTKGSAFTTESETLPASNHSQRSMMTISTDIAVLRPTGSNPGILPSTSQLTTQKTTLTTSESLQKTTKSHQINSRQTILIIACCVGFVLMVLLFLAFLSYLDLPWYLRMVCQWTQTRRRARNIPLEELQRNLQFHAFISYSGHDSFWVKNELLPNLEKEGMQICLHERNFVPGKSIVENIITCIEKSYKSIFVLSPNFVQSEWCHYELYFAHHNLFHEGSNSLILILLEPIPQYSIPSSYHKLKSLMARRTYLEWPKEKSKRGLFWANLRAAINIKLTEQAKK
modifications: CER26, amino acids 1-22 are signal peptide
B3: CER19: Chimeric engulfment receptor: Tim4 binding, Tim4 transmembrane, TLR5 signaling; SEQ ID NO: 95 (protein)
chain: MSKGLLLLWLVTELWWLYLTPAASEDTIIGFLGQPVTLPCHYLSWSQSRNSMCWGKGSCPNSKCNAELLRTDGTRIISRKSTKYTLLGKVQFGEVSLTISNTNRGDSGVYCCRIEVPGWFNDVKKNVRLELRRATTTKKPTTTTRPTTTPYVTTTTPELLPTTVMTTSVLPTTTPPQTLATTAFSTAVTTCPSTTPGSFSQETTKGSAFTTESETLPASNHSQRSMMTISTDIAVLRPTGSNPGILPSTSQLTTQKTTLTTSESLQKTTKSHQINSRQTILIIACCVGFVLMVLLFLAFLTKFRGFCFICYKTAQRLVFKDHPQGTEPDMYKYDAYLCFSSKDFTWVQNALLKHLDTQYSDQNRFNLCFEERDFVPGENRIANIQDAIWNSRKIVCLVSRHFLRDGWCLEAFSYAQGRCLSDLNSALIMVVVGSLSQYQLMKHQSIRGFVQKQQYLRWPEDFQDVGWFLHKLSQQILKKEKEKKKDNNIPLQTVATIS
modifications: CER19, amino acids 1-22 are signal peptide
B4: CER17: Chimeric engulfment receptor: Tim4 binding, Tim4 transmembrane, TLR3 signaling; SEQ ID NO: 112 (protein)
chain: MSKGLLLLWLVTELWWLYLTPAASEDTIIGFLGQPVTLPCHYLSWSQSRNSMCWGKGSCPNSKCNAELLRTDGTRIISRKSTKYTLLGKVQFGEVSLTISNTNRGDSGVYCCRIEVPGWFNDVKKNVRLELRRATTTKKPTTTTRPTTTPYVTTTTPELLPTTVMTTSVLPTTTPPQTLATTAFSTAVTTCPSTTPGSFSQETTKGSAFTTESETLPASNHSQRSMMTISTDIAVLRPTGSNPGILPSTSQLTTQKTTLTTSESLQKTTKSHQINSRQTILIIACCVGFVLMVLLFLAFLEGWRISFYWNVSVHRVLGFKEIDRQTEQFEYAAYIIHAYKDKDWVWEHFSSMEKEDQSLKFCLEERDFEAGVFELEAIVNSIKRSRKIIFVITHHLLKDPLCKRFKVHHAVQQAIEQNLDSIILVFLEEIPDYKLNHALCLRRGMFKSHCILNWPVQKERIGAFRHKLQVALGSKNSVH
modifications: CER17, amino acids 1-22 are signal peptide
B5: CER23: Chimeric engulfment receptor: Tim4 binding, Tim4 transmembrane, TLR9 signaling; SEQ ID NO: 116 (protein)
chain: MSKGLLLLWLVTELWWLYLTPAASEDTIIGFLGQPVTLPCHYLSWSQSRNSMCWGKGSCPNSKCNAELLRTDGTRIISRKSTKYTLLGKVQFGEVSLTISNTNRGDSGVYCCRIEVPGWFNDVKKNVRLELRRATTTKKPTTTTRPTTTPYVTTTTPELLPTTVMTTSVLPTTTPPQTLATTAFSTAVTTCPSTTPGSFSQETTKGSAFTTESETLPASNHSQRSMMTISTDIAVLRPTGSNPGILPSTSQLTTQKTTLTTSESLQKTTKSHQINSRQTILIIACCVGFVLMVLLFLAFLGWDLWYCFHLCLAWLPWRGRQSGRDEDALPYDAFVVFDKTQSAVADWVYNELRGQLEECRGRWALRLCLEERDWLPGKTLFENLWASVYGSRKTLFVLAHTDRVSGLLRASFLLAQQRLLEDRKDVVVLVILSPDGRRSRYVRLRQRLCRQSVLLWPHQPSGQRSFWAQLGMALTRDNHHFYNRNFCQGPTAE
modifications: CER23, amino acids 1-22 are signal peptide
B6: CER21: Chimeric engulfment receptor: Tim4 binding, Tim4 transmembrane, TLR8 signaling; SEQ ID NO: 96 (protein)
chain: MSKGLLLLWLVTELWWLYLTPAASEDTIIGFLGQPVTLPCHYLSWSQSRNSMCWGKGSCPNSKCNAELLRTDGTRIISRKSTKYTLLGKVQFGEVSLTISNTNRGDSGVYCCRIEVPGWFNDVKKNVRLELRRATTTKKPTTTTRPTTTPYVTTTTPELLPTTVMTTSVLPTTTPPQTLATTAFSTAVTTCPSTTPGSFSQETTKGSAFTTESETLPASNHSQRSMMTISTDIAVLRPTGSNPGILPSTSQLTTQKTTLTTSESLQKTTKSHQINSRQTILIIACCVGFVLMVLLFLAFLHHLFYWDVWFIYNVCLAKVKGYRSLSTSQTFYDAYISYDTKDASVTDWVINELRYHLEESRDKNVLLCLEERDWDPGLAIIDNLMQSINQSKKTVFVLTKKYAKSWNFKTAFYLALQRLMDENMDVIIFILLEPVLQHSQYLRLRQRICKSSILQWPDNPKAEGLFWQTLRNVVLTENDSRYNNMYVDSIKQY
modifications: CER21, amino acids 1-22 are signal peptide

This assay has as its system SCC152 cells. As to the kind of experiment: Elimination of GFP-expressing SCC152 target cells over time (quantification and time lapse imaging). The format is cell-based. Particulars: 96-well co-culture, CD8+/E7 TCR + CD4+/CER + SCC152 1:1:1, compared to control. On the procedure: Target SCC152 cells were co-cultured with CD8+ T cells transduced with HPV E7 TCR+CD4+ T cells transduced with a selected CER, or controls (CD8+ T cell transduced with HPV E7 TCR+CD4+ transduced control) at a 1:1:1 ratio. The number of target cells were quantified using imaging software. 0 hours, 24 hours, and 48 hours are shown from left to right.
FIG. 21 is time lapse imaging from 96-well co-culture experiments comprising CD8+ T cells transduced with HPV16 E7 TCR+CD4+ T cells transduced with CER5, CER17 or CER19 incubated with SCC152 target cells at a 1:1:1 ratio. SCC152 HPV+ target cells were quantified using automated cell counting software.
FIG. 22 is time lapse imaging from 96-well co-culture experiments comprising CD8+ T cells transduced with HPV16 E7 TCR+CD4+ T cells transduced with CER21, CER23 or CER26 incubated with SCC152 target cells at a 1:1:1 ratio. SCC152 HPV+ target cells were quantified using automated cell counting software.
FIG. 23 is time lapse imaging from 96-well co-culture experiments comprising CD8+ T cells transduced with HPV16 E7 TCR+CD4+ T cells transduced with CER103b, CER104 or CER105 incubated with SCC152 target cells at a 1:1:1 ratio. SCC152 HPV+ target cells were quantified using automated cell counting software.
FIG. 24 is time lapse imaging from 96-well co-culture experiments comprising CD8+ T cells transduced with HPV16 E7 TCR+CD4+ T cells transduced with CER106, CER116 or CER27 incubated with SCC152 target cells at a 1:1:1 ratio. SCC152 HPV+ target cells were quantified using automated cell counting software.
FIG. 57 is a bar graph showing quantification of loss of SCC152 HPV16+ target cells over time during co-culture assays. SCC152 cells were transduced with green fluorescent protein (GFP) and co-cultured with CD8+ T cells transduced with HPV16 E7 TCR and CD4+ T cells transduced with a selected CER (CER29, CER30, CER110, CER112, CER113, CER114, CER116, or CER117) or a CD4+ T cell control at a 1:1:1 ratio (CD8:CD4:target cell). The number of target cells was quantified at various time points during co-culture (0 hrs, 12 hrs, 24 hrs, and 36 hrs) using fluorescence microscopy and imaging software.
FIG. 58 are fluorescence micrograph images of the co-culture assay described in FIG. 57, showing clearance of the SCC152 cells (pink) as co-culture with CD8+ T cells transduced with HPV16 E7 TCR and CD4+ T cells transduced with a selected CER (columns from left to right: control, CER29, CER30, CER110, or CER112) progresses (rows from top to bottom: 0 hrs, 12 hrs, 24 hrs, and 36 hrs).
FIG. 59 are fluorescence micrograph images of the co-culture assay described in FIG. 57, showing clearance of the SCC152 cells (pink) as co-culture with CD8+ T cells transduced with HPV16 E7 TCR and CD4+ T cells transduced with a selected CER (columns from left to right: control, CER113, CER114, CER116, or CER117) progresses (rows from top to bottom: 0 hrs, 12 hrs, 24 hrs, and 36 hrs).
Elimination of target SCC152 cells was also detected by quantifying green fluorescent protein expression by SCC152 cells over time (0 hr, 24 hr, 48 hr) during co-incubation with CD8+ T cells transduced with HPV16 E7 specific TCR+ CD4 T cells transduced with selected CER (see, FIG. 20).
Elimination of target SCC152 cells was also detected by quantifying green fluorescent protein expression by SCC152 cells over time (0 hr, 12 hr, 24 hr, 36 hr) during co-incubation with CD8+ T cells transduced with HPV16 E7 specific TCR+ CD4+ T cells transduced with selected CER (CER29, CER30, CER110, CER112, CER113, CER114, CER116, or CER117) (see, FIG. 57).
Regarding B1, the “number of SCC152 cells in time lapse imaging” value was “decreasing in numbers over time”.
To B2 belongs “decreasing in numbers over time”; to B3, “decreasing in numbers over time”; to B4, “decreasing in numbers over time”.
The result for B5 reads “decreasing in numbers over time”; that for B6, “decreasing in numbers over time”.
